According to the RNAGym collection of RNA variant scans (doi:10.7554/elife.80360):

B1: CPEB3 Ribozyme (parent)
chain: GGGGGCCACAGCAGAAGCGUUCACGUCGCGGCCCCUGUCAGAUUCUGGUGAAUCUGCGAAUUCUGCUGU

Variants of: B1
Test: self-cleavage, relative activity (ratio to wild type); higher = more cleavage; co-transcriptional

Variant	self-cleavage
GGGGGCCACAGCAGAAGCGUUCACGUCGCGGCCCCUGUCAGGUUCUGGUGAGUCUGCGAAUUCUGCUGU [A42G A52G]	0.825
GGGGGCCACAGCAGAAGCGUUCACGUCGCGGCCCCUGUCAUAUUCUGGUGAAUCUGCGAAUUCUGCGGU [G41U U67G]	0.865
GGGGGCCACAGCAGAAGCGUUCACGUCGCGGCCCCUGUCAUAUUCUGGUGAAUCUGCGAAUUCUGCAGU [G41U U67A]	0.888
GGGGGCCACAGCAGAAGCGUUCACGUCGCGGCCCCUGUCAGGUUCUGGUGAAUCUGAGAAUUCUGCUGU [A42G C57A]	0.306
GGGGGCCACAGCAGAAGCGUUCACGUCGCGGCCCCUGUCAGGUUCUGGUGAAUCUGGGAAUUCUGCUGU [A42G C57G]	0.276
GGGGGCCACAGCAGAAGCGUUCACGUCGCGGCCCCUGUCAUAUUCUGGGGAAUCUGCGAAUUCUGCUGU [G41U U49G]	0.848
GGGGGCCACAGCAGAAGCGUUCACGUCGCGGCCCCUGUCAUAUUCUGGAGAAUCUGCGAAUUCUGCUGU [G41U U49A]	0.97
GGGGGCCACAGCAGAAGCGUUCACGUCGCGGCCCCUGUCAGGUUGUGGUGAAUCUGCGAAUUCUGCUGU [A42G C45G]	0.92
GGGGGCCACAGCAGAAGCGUUCACGUCGCGGCCCCUGUCAUAUUCUGGUGAAACUGCGAAUUCUGCUGU [G41U U53A]	0.616
GGGGGCCACAGCAGAAGCGUUCACGUCGCGGCCCCUGUCAUAUUCUGGUGAAUCUGCGAAUUCUCCUGU [G41U G65C]	0.272
GGGGGCCACAGCAGAAGCGUUCACGUCGCGGCCCCUGUCAGCUUCUGGUGAAUCUGCGAAGUCUGCUGU [A42C U61G]	0.518
GGGGGCCACAGCAGAAGCGUUCACGUCGCGGCCCCUGUCAGCUUCUGGUUAAUCUGCGAAUUCUGCUGU [A42C G50U]	0.932
GGGGGCCACAGCAGAAGCGUUCACGUCGCGGCCCCUGUCAGCUUCAGGUGAAUCUGCGAAUUCUGCUGU [A42C U46A]	0.967
GGGGGCCACAGCAGAAGCGUUCACGUCGCGGCCCCUGUCAGCUUCCGGUGAAUCUGCGAAUUCUGCUGU [A42C U46C]	0.895
GGGGGCCACAGCAGAAGCGUUCACGUCGCGGCCCCUGUCAGGUUCUGGUCAAUCUGCGAAUUCUGCUGU [A42G G50C]	0.789
GGGGGCCACAGCAGAAGCGUUCACGUCGCGGCCCCUGUCAGGUUCUGGUAAAUCUGCGAAUUCUGCUGU [A42G G50A]	0.88
GGGGGCCACAGCAGAAGCGUUCACGUCGCGGCCCCUGUCAGGUUCUCGUGAAUCUGCGAAUUCUGCUGU [A42G G47C]	0.941
GGGGGCCACAGCAGAAGCGUUCACGUCGCGGCCCCUGUCAUAUUUUGGUGAAUCUGCGAAUUCUGCUGU [G41U C45U]	0.715
GGGGGCCACAGCAGAAGCGUUCACGUCGCGGCCCCUGUCAUAUUCUGGUGAAUCUGCGUAUUCUGCUGU [G41U A59U]	0.453
GGGGGCCACAGCAGAAGCGUUCACGUCGCGGCCCCUGUCAUAUUCUGGUGAAUCUGUGAAUUCUGCUGU [G41U C57U]	0.243

Variant	self-cleavage
GGGGGCCACAGCAGAAGCGUUCACGUCGCGGCCCCUGUCAUAUUCUGGUGAAUCUGAGAAUUCUGCUGU [G41U C57A]	0.303
GGGGGCCACAGCAGAAGCGUUCACGUCGCGGCCCCUGUCAUAUUCUGGUGAAUCUGGGAAUUCUGCUGU [G41U C57G]	0.328
GGGGGCCACAGCAGAAGCGUUCACGUCGCGGCCCCUGUCAGCUUCUGGUGAAUCUGCAAAUUCUGCUGU [A42C G58A]	0.925
GGGGGCCACAGCAGAAGCGUUCACGUCGCGGCCCCUGUCAGCUUCUGGUGAAUCUGCUAAUUCUGCUGU [A42C G58U]	1.01
GGGGGCCACAGCAGAAGCGUUCACGUCGCGGCCCCUGUCAGCUUCUGGUGAAUCUGCGUAUUCUGCUGU [A42C A59U]	0.633
GGGGGCCACAGCAGAAGCGUUCACGUCGCGGCCCCUGUCAGCUUCUGGUGAAUCUGCGCAUUCUGCUGU [A42C A59C]	0.528
GGGGGCCACAGCAGAAGCGUUCACGUCGCGGCCCCUGUCAGCUUCUGGUGAAUCUGCGGAUUCUGCUGU [A42C A59G]	0.961
GGGGGCCACAGCAGAAGCGUUCACGUCGCGGCCCCUGUCAGCUUCUGGUGAAUCUGCGAAUUUUGCUGU [A42C C63U]	0.926
GGGGGCCACAGCAGAAGCGUUCACGUCGCGGCCCCUGUCAUAUUCUGGUGAUUCUGCGAAUUCUGCUGU [G41U A52U]	0.526
GGGGGCCACAGCAGAAGCGUUCACGUCGCGGCCCCUGUCAGCUUCUGGUGAACCUGCGAAUUCUGCUGU [A42C U53C]	0.939
GGGGGCCACAGCAGAAGCGUUCACGUCGCGGCCCCUGUCAGCUUCUGGUGAAGCUGCGAAUUCUGCUGU [A42C U53G]	1.04
GGGGGCCACAGCAGAAGCGUUCACGUCGCGGCCCCUGUCAGGUUCUGGUGGAUCUGCGAAUUCUGCUGU [A42G A51G]	0.894
GGGGGCCACAGCAGAAGCGUUCACGUCGCGGCCCCUGUCAUAUUCUGGUGAAUCUGCGAAUUCUGCUGC [G41U U69C]	0.697
GGGGGCCACAGCAGAAGCGUUCACGUCGCGGCCCCUGUCAUAUUCUAGUGAAUCUGCGAAUUCUGCUGU [G41U G47A]	1.02
GGGGGCCACAGCAGAAGCGUUCACGUCGCGGCCCCUGUCAGCCUCUGGUGAAUCUGCGAAUUCUGCUGU [A42C U43C]	0.777
GGGGGCCACAGCAGAAGCGUUCACGUCGCGGCCCCUGUCAGCUUCUGGUGUAUCUGCGAAUUCUGCUGU [A42C A51U]	0.952
GGGGGCCACAGCAGAAGCGUUCACGUCGCGGCCCCUGUCAGCUUCUGGUGCAUCUGCGAAUUCUGCUGU [A42C A51C]	0.832
GGGGGCCACAGCAGAAGCGUUCACGUCGCGGCCCCUGUCAGGUUCUGAUGAAUCUGCGAAUUCUGCUGU [A42G G48A]	0.979
GGGGGCCACAGCAGAAGCGUUCACGUCGCGGCCCCUGUCAGCUUCUGGUGAAUCUGCGAAUUCUGCGGU [A42C U67G]	0.919
